Blank lines part the entries; values can stand above or below the binder they belong to.
Assays:
[1] = target: T1, native human IL-1α present in crude supernatants (human, UniProt P01583 113-271, limits assumed); test: cell-based or functional assay
T1 sequence (looked up): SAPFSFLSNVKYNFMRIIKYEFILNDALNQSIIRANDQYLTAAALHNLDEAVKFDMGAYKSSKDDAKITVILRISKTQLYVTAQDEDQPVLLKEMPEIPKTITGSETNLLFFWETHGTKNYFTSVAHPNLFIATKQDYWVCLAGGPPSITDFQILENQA

[2] = target: T2, recombinant cynomolgus IL-1β (cynomolgus, UniProt P79182 117-268); test: cell-based or functional assay
T2 sequence (looked up): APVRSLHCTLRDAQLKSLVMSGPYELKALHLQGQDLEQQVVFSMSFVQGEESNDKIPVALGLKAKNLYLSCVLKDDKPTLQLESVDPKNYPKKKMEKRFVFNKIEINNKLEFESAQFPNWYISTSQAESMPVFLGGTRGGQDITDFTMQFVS

[3] = target: T3, recombinant human IL-1β (human, UniProt P01584 117-269); test: cell-based or functional assay
[4] = target: T4, recombinant human IL-1α (human, UniProt P01583 113-271); test: cell-based or functional assay
T4 sequence: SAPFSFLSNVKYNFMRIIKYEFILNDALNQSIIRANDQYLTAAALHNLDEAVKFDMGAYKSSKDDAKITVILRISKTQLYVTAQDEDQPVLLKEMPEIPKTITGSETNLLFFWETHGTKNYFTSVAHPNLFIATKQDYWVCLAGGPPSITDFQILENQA

[5] = target: T5, purified native human IL-1β (human, UniProt P01584 117-269); test: cell-based or functional assay
[6] = target: T6, recombinant cynomolgus IL-1α (cynomolgus, UniProt P79340 113-271); test: cell-based or functional assay
T6 sequence (looked up): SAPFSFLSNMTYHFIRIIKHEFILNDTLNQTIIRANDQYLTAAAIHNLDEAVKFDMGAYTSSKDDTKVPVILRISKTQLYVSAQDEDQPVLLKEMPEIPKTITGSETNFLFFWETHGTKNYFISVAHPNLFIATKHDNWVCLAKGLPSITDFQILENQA

[7] = target: T2, recombinant cynomolgus IL-1β; test: SPR (Biacore), Ig captured via goat anti-human IgG Fc, antigen in solution
Protocol: (§1) Goat IgGs specific to human IgG Fc were covalently linked to the carboxy methyl dextran matrix on the CMS biosensor chip via free amine groups using an amine coupling kit and the immobilization wizard option in the Biacore instruments controlling software. Specifically, carboxyl groups of the dextran matrix on the chip were activated with NHS and EDC. Goat anti-human IgG Fc antibodies (25 μg/mL), diluted in 10 mM sodium acetate, pH 4.5, were injected across the activated surface. Once the level of binding response reached the desired value, unreacted groups were deactivated by injection of 1M ethanolamine. For binding of IL-1α & IL-1β to captured Ig, a 1 μg/mL concentration of Ig in HBS-EP+ was injected over the goat anti-human IgG Fc surface at a flow rate of 10 μL/min for 1 minute. The net difference in the baseline signal and the signal after the completion of the Ig injection was taken to represent the amount of bound Ig.

[8] = target: T3, recombinant human IL-1β; test: as above
Protocol: as §1

[9] = target: T4, recombinant human IL-1α; test: as above
Protocol: as §1

[10] = target: T6, recombinant cynomolgus IL-1α; test: as above
Protocol: as §1

[11] = target: T1, native human IL-1α present in crude …; test: cell-based or functional assay; remark: listed apart in the source
[12] = target: T2, recombinant cynomolgus IL-1β; test: cell-based or functional assay; remark: listed apart in the source
[13] = target: T3, recombinant human IL-1β; test: cell-based or functional assay; remark: listed apart in the source
[14] = target: T4, recombinant human IL-1α; test: cell-based or functional assay; remark: listed apart in the source
[15] = target: T5, purified native human IL-1β; test: cell-based or functional assay; remark: listed apart in the source
[16] = target: T6, recombinant cynomolgus IL-1α; test: cell-based or functional assay; remark: listed apart in the source
[17] = target: T2, recombinant cynomolgus IL-1β; test: SPR (BIAcore), DVD-Ig captured via goat anti-human IgG Fc
Protocol: as §1
(§2) The potency of the 5 DVD-Igs containing affinity matured h1B12.1 domains to recombinant and native IL-1 antigens was determined using the MRC-5 bioassay as shown in Table 24. The binding kinetics of the DVD-Igs to recombinant human and cynomolgus IL-1α and IL-1β were determined using surface plasmon resonance. In some cases, the off-rate could not be determined as they reached the limit of detection of the instrument.

[18] = target: T3, recombinant human IL-1β; test: as above
Protocol: as §1, §2

[19] = target: T4, recombinant human IL-1α; test: as above
Protocol: as §1, §2

[20] = target: T6, recombinant cynomolgus IL-1α; test: as above
Protocol: as §1, §2

[21] = target: T3, recombinant human IL-1β; test: SPR (BIAcore); KD calculated assuming an off-rate of 1x10^-6
Protocol: as §1, §2

[22] = target: T3, recombinant human IL-1β; test: SPR (BIAcore); the off-rate reached the limit of detection of the instrument
Protocol: as §1, §2

- Potency IC50 (pM), MRC-5 bioassay (IL-8 secretion) [1]: 79 pM
- Potency IC50 (pM), MRC-5 bioassay (IL-8 secretion) [2]: 461 pM
- Potency IC50 (pM), MRC-5 bioassay (IL-8 secretion) [3]: 26 pM
- Potency IC50 (pM), MRC-5 bioassay (IL-8 secretion) [4]: 27 pM
- Potency IC50 (pM), MRC-5 bioassay (IL-8 secretion) [5]: 156 pM
- Potency IC50 (pM), MRC-5 bioassay (IL-8 secretion) [6]: 2510 pM
- Kd [7]: 110 pM
- koff [7]: 0.0008 s⁻¹
- kon [7]: 7.3e+06 M⁻¹ s⁻¹
- Kd [8]: < 820 pM
- koff [8]: 0.00082 s⁻¹
- kon [8]: > 1e+06 M⁻¹ s⁻¹
- Kd [9]: 120 pM
- koff [9]: 2.4e-05 s⁻¹
- kon [9]: 210000 M⁻¹ s⁻¹
- Kd [10]: 3500 pM
- koff [10]: 0.00026 s⁻¹
- kon [10]: 74000 M⁻¹ s⁻¹
B1: 1B12.1-SS-X3 DVD-Ig IgG1/k mut (234,235) (bispecific antibody)
heavy: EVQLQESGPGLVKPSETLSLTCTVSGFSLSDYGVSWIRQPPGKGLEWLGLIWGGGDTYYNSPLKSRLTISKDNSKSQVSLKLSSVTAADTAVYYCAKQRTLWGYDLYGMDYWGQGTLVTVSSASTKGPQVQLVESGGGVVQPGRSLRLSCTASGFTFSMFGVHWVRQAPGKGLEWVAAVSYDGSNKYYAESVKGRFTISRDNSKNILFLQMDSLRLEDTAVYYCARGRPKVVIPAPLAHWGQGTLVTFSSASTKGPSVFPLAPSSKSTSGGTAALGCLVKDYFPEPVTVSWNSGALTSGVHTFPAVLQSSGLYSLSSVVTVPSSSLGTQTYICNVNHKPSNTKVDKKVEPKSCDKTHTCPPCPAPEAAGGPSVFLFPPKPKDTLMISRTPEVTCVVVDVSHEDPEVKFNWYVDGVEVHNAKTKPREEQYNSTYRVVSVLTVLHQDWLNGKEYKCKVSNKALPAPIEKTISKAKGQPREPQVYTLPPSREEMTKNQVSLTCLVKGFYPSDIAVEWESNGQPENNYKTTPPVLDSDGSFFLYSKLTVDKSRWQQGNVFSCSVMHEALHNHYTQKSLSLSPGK
light: DTQVTQSPSSLSASVGDRVTITCITSTDIDVDMNWYQQKPGKPPKLLISQGNTLRPGVPSRFSSSGSGTDFTFTISSLQPEDFATYYCLQSDNLPLTFGQGTKLEIKRTVAAPDIQMTQSPSSVSASVGDRVTITCRASQGISSWLAWYQQKPGKAPKLLIYEASNLETGVPSRFSGSGSGSDFTLTISSLQPEDFATYYCQQTSSFLLSFGGGTKVEHKRTVAAPSVFIFPPSDEQLKSGTASVVCLLNNFYPREAKVQWKVDNALQSGNSQESVTEQDSKDSTYSLSSTLTLSKADYEKHKVYACEVTHQGLSSPVTKSFNRGEC
notes: also called PR-1308565

- Potency (IC50) pM, MRC-5 bioassay [11]: 50.4 pM
- Potency (IC50) pM, MRC-5 bioassay [12]: 2.13 pM
- Potency (IC50) pM, MRC-5 bioassay [13]: 42.2 pM
- Potency (IC50) pM, MRC-5 bioassay [14]: 41.3 pM
- Potency (IC50) pM, MRC-5 bioassay [15]: 0.998 pM
- Potency (IC50) pM, MRC-5 bioassay [16]: 1900 pM
- Kd [17]: 0.67 pM
- koff [17]: 1.2e-05 s⁻¹
- kon [17]: 1.8e+07 M⁻¹ s⁻¹
- kon [18]: 3.9e+07 M⁻¹ s⁻¹
- Kd [19]: 30 pM
- koff [19]: 4.2e-06 s⁻¹
- kon [19]: 140000 M⁻¹ s⁻¹
- Kd [20]: 2300 pM
- koff [20]: 0.00024 s⁻¹
- kon [20]: 100000 M⁻¹ s⁻¹
- Kd [21]: < 0.026 pM
- koff [22]: < 1e-06 s⁻¹
B2: DVD3-h1B12.34-SS-X3, human anti-IL-1α/β DVD IgG1/k mut (234,235) (bispecific antibody)
heavy: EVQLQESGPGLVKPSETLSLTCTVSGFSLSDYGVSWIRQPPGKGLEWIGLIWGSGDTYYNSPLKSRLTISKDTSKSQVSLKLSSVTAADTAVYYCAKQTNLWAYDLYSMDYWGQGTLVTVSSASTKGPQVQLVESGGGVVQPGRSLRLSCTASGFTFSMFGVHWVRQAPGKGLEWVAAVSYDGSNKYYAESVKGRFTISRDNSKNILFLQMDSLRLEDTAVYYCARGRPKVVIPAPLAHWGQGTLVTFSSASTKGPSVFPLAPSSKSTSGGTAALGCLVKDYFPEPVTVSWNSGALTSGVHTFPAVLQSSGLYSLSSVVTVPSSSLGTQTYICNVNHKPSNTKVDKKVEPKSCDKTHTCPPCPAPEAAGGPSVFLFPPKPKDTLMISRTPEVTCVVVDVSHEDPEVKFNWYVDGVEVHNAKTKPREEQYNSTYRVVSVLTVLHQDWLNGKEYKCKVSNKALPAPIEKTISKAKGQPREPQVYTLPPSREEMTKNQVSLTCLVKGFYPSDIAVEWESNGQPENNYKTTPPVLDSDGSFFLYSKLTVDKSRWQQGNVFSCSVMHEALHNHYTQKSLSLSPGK
light: DIQMTQSPSSLSASVGDRVTITCQASQDIDDDLNWYQQKPGKAPKLLISLASILRPGVPSRFSGSGSGTDFTFTISSLQPEDFATYYCLQSDSFPLTFGQGTKLEIKRTVAAPDIQMTQSPSSVSASVGDRVTITCRASQGISSWLAWYQQKPGKAPKLLIYEASNLETGVPSRFSGSGSGSDFTLTISSLQPEDFATYYCQQTSSFLLSFGGGTKVEHKRTVAAPSVFIFPPSDEQLKSGTASVVCLLNNFYPREAKVQWKVDNALQSGNSQESVTEQDSKDSTYSLSSTLTLSKADYEKHKVYACEVTHQGLSSPVTKSFNRGEC
notes: also called PR-1358318
